The DeepSol protein solubility set

assay: soluble on expression in E. coli; label from the status in PepcDB or PDB records

Row | Sequence | soluble on expression in E. coli
1 | MGSDKIHHHHHHMDKRIFGIETEFGISYSSPDSRPLAPEEVARYLFRKVVSWGRSSNVFLTNGSRLYLDVGSHPEYATAECDDLGQLIAHDRAGELILDDLVDEAQERLAAEGFNGTVYLFKNNTDSAGNSYGSHENYLIPRRGEFSRLAEILIPFLVTRQLIAGAGKILKTPHGATFAFSQRADHIWEGVSSATTRSRPIINTRDEPHADAEFYRRLHVIVGDSNMSETTALMKVGTVDLILRMIEAGVIMRDMRMENPIRSIREISHDLSGRALIRLANGRQLTALEIQREYLNKVTSFVAENGAHNQHVPLILDLWERTLTAIESGDTSTIDTEIDWAIKKKLMDSYRKRHGLGLDAPRIAQLDLTYHDISRTRGLYYLLQSRGAVRRVVDDTAVKDAVDAPPQTTRAKLRGDFVRRAQELGRDYTVDWVHLKLNDRAHQTILCKDPFRNVDERVDALLDSMG | not soluble
2 | MMIFEKIHTVPTSEELTNKAFKRAARAMSGKTIDGRDSRFKANESMLLTAANIFTDNLANIVRRFPSFEQLPRFYYELTDILVGVEKLKMSLASVDWASRKIHEVARSYVGKIRESDIPEPVRKEAFGRLASIINSINKDLLFLNEARNILRKLPDVQDEPTIVIAGYPNVGKSSFVSKITGATPEIAPYPFTTKGVTIGHFTRDGVRYQVMDTPGLLDRPMAERNDIERQAITAIHYLDAVVMVVIDPSESCGYELQDQRRLLAEIRENFNLPLLVVANKADRPEFMKMDEVELNMSTITGEGIEQVMDRLLEMIEEKRLRSLEEAPSEESDDESALLEHHHHHH | soluble
3 | GMLFESINTGCLDGNDTPWMPFAPYSNDVMVKYFKIDPVRGETITLLKAPAGMEMPRHHHTGTVIVYTVQGSWRYKEHDWVAHAGSVVYETASTRHTPQSAYAEGPDIITFNIVAGELLYLDDKDNIIAVENWKTSMDRYLNYCKAHGIRPKDLSTFEG | soluble
4 | MAKNKVLGRGLADIFPEINEVYEQGLYERANRVVELGIDEVMPNPYQPRKVFSEDSLEELAQSIKEHGLLQPVLVVSENGRYHLIAGERRLRASKLAKMPTIKAIVVDIEQEKMREVALIENIQREDLNPLELARSYKELLESYQMTQEELSKIVKKSRAHVANIMRLLTLSSKVQNALLEEKITSGHAKVLVGLDGEKQELILNSIIGQKLSVRQTEDLARDFKINANFDNKKHGFKQTQTLIAGDELERLNQSLWDHYKLKAALKGNKIVLRCYENSLLEAFMKKMMS | not soluble
5 | QVQLVASGGGSVQAGGSLRLSCAASGYTFSSYPMGWYRQAPGKECELSARIFSDGSANYADSVKGRFTISRDNAANTAYLQMDSLKPEDTAVYYCAAGPGSGKLVVAGRTCYGPNYWGQGTQVTVSS | soluble
6 | TRINLTLVSELADQHLMAEYRQLPRVFGAVRKHVANGKRVRDFKISPTFILGAGHVTFFYDKLEFLRKRQIELIAECLKRGFNIKDTTVQDISDIPQEFRGDYIPHEASIAISQARLDEKIAQRPTWYKYYGKAIYA | soluble
7 | MGNIKVTRDDWLNVAMDVLVSDGVEQVKVMNLAERMAVSRSSFYWYFKSRQDLLDALLAKWQATNTAGLIAQTELPAQTITGAVCNLFHCVVDPALFDTALDFAVRDWARRSGKVRRLLDLSDSRRLEALTAMFLRYDYSQIEAETRARVLYYMQIGYDLAQMNEPIDQRLSFVRHYLFVFTGVQARDEEVAAFSAFARGFWEGRRP | not soluble
8 | LHPDKCRAPHATEAFKALGNAYAVLSDTDKRRQYDQYGAEAANSHTPTTRRRGGGHGAFFEHDYAHGFEAEFTPEEIFNMFFGGGFPTEQVRRRARYAQQQQYHHYEQQQSPYGPLLQLLPLIAIMVIGLLAQLMVGEPAYSLHQTSKFTIKRLTADLRVPYFVRTDFETSYRGRIRQVEQQVEDDYIQNLRMNCYKEQNLKETKLYRARWMRDEAMMRDAERTPLPSCIRLNEIYSH | not soluble
9 | MTDDKKMFDINEFLKRHLFVKNWVNYRQQSYTKYELMQLIESVEAALSVDDTLAKISPPVTIVGDIHGQYPDLVRVLCNQNSKEDAKKKAAYGFCNSRFVFLGDYVDRGHHSIECISLVFALKVVYPTNYILLRGNHETKSINYTYGFREELVNRLGPIDGFEIWERFNVAFSWMPLACLVGHKILCMHGGISPKLHSLKEINEIDRPVAEILPDSLAQDLLWADPADGQGAMTVRSTPEYVPNGVRGLSFIFNEAAVRDTCKRLNINLIVRAHQMIPEGFKFFADQKLLTIFSAPRYMNETDNHGATLRVETDGKLNIGRFRHKKLLHANSADEITRGDDIPNLERKKSGSMPVKHLKTSSSSSPSHSNGKSKGGEGLSLGKI | not soluble
